From patent US20100119478A1 (PROBIODRUG, published 2010) come the findings set out here.

The labels stand for the following.
T1: 11 EKLTGPDKAVT
T1 construct: member of group m23; also called PepSpot spot 11
T1 peptide: EKLTGPDKAVT

T2: 09 DAVNAPL
T2 construct: member of group m23; also called PepSpot spot 09
T2 peptide: DAVNAPL

T3: 07 AQPDAVNAPL
T3 construct: member of group m23; also called PepSpot spot 07
T3 peptide: AQPDAVNAPL

T4: 16 LAQDALNVPST
T4 construct: member of group m23; also called PepSpot spot 16
T4 peptide: LAQDALNVPST

B1: monoclonal antibody 348-2C9 (antibody, V domains shown)
VH: EVQLQQSGPELVKPGASVKMSCKASGYTFTDYYMDWVKQSHGESFECIGRVNPYNGGTSYNQKFKGKATLTVDKSSSTAYMELNSLTSEDSAVYYCARLGSSYRWGQGTTLTVSS
VL: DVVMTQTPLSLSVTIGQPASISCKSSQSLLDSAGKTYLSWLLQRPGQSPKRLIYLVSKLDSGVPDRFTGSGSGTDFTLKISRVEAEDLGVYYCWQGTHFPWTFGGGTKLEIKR
notes: Mouse IgG2b from hybridoma, Protein-G purified; also called Clone 2C9; DSM ACC 2906
B2: monoclonal antibody 348-1D4 (antibody, V domains shown)
VH: B1 VH
VL: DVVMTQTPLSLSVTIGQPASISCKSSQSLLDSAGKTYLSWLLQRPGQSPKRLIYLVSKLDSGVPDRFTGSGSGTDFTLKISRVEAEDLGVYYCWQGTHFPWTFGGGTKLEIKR
notes: Mouse IgG2b from hybridoma, Protein-G purified; also called Clone 1D4; DSM ACC 2905
B3: monoclonal antibody 332-4B8 (antibody, V domains shown)
VH: EVQLQQSGPELEKPGASVKISCKASGYSFTGYNMNWVKQNNGKSLEWIGNITPYYGSTSYNQKFKGRVTLTVDKSSSTAYMQLKSLTSEDSAVYFCLLWLRRGDYAMDYWGQGTSVTVSS
VL: DVLMTQTPLSLPVSLGDQASISCKSSQSIVHSNGNTYLEWYLQKPGQSPKLLIYKVFNRFSGVPDRFSGSGSGTDFTLKISRVEAEDLGVYYCFQGSHVPYTFGGGTKLEIKR
notes: Mouse IgG1 from hybridoma, Protein-G purified; also called Clone 4B8; 322-4B8

In the first experiment the target is T1, 11 EKLTGPDKAVT
Briefly: PepSpot membrane, peptide 1 µg/spot, antibody 1 µg/ml, AP-conjugated anti-mouse detection. As for the experimental part:
(§1) Corresponding PepSpot membranes were prepared by JPT Peptide Technologies GmbH, Berlin (JPT). On these membranes, peptides with the indicated amino acid sequences (see FIG. 3; Z represents pE) were immobilized at a concentration of 1 μg/spot.
(§2) For analysis, membranes were blocked for two hours with TBST-M (=TBST+5% skimmed milk) at room temperature with gentle shaking. Membranes were incubated over night at 4° C. on a rocking platform with the individual MCP-1 N1pE antibody clones diluted to 1 μg/ml in equal volumes of TBST-M. Secondary anti-mouse antibody conjugated with alkaline phosphatase was used for signal detection, following standard procedures.
For B1, the binding result is “no binding (tested: 1 µg peptide per spot)”.
Same read-out and setting: next, B2: “no binding (tested: 1 µg peptide per spot)”; B3: “no binding (tested: 1 µg peptide per spot)”.

For the next experiment, the target named is T2, 09 DAVNAPL. The description is as above. As for the experimental part:
as §1, §2
Regarding B1, the binding result is recorded as “no binding (tested: 1 µg peptide per spot)”.
Regarding B2, the binding result is given as “no binding (tested: 1 µg peptide per spot)”.
As for B3, the binding result is on record as “no binding (tested: 1 µg peptide per spot)”.

A further experiment has as its target T3, 07 AQPDAVNAPL
The experiment is described as above. The method, then: as §1, §2
For B1, the binding result is “no binding (tested: 1 µg peptide per spot)”.
As for B2, the binding result is given as “no binding (tested: 1 µg peptide per spot)”.
In the case of B3, the binding result is “no binding (tested: 1 µg peptide per spot)”.

In a further experiment the target is T4, 16 LAQDALNVPST
The description is as above. As for the experimental part: as §1, §2
With B1, the binding result is listed as “no binding (tested: 1 µg peptide per spot)”.
The same measure, in the same setting: next, B2: “no binding (tested: 1 µg peptide per spot)”.
On the same count and under the same terms, next, B3: “no binding (tested: 1 µg peptide per spot)”.
